Source: paper doi:10.1101/2024.12.20.629683 (bioRxiv, 2024)

Biological target: Ryanodine receptor 1 (RyR1) (rabbit (endogenous in skeletal muscle), UniProt P11716)
Test: cryo-EM structure

Sequence of Ryanodine receptor 1 (RyR1) (P11716 whole entry): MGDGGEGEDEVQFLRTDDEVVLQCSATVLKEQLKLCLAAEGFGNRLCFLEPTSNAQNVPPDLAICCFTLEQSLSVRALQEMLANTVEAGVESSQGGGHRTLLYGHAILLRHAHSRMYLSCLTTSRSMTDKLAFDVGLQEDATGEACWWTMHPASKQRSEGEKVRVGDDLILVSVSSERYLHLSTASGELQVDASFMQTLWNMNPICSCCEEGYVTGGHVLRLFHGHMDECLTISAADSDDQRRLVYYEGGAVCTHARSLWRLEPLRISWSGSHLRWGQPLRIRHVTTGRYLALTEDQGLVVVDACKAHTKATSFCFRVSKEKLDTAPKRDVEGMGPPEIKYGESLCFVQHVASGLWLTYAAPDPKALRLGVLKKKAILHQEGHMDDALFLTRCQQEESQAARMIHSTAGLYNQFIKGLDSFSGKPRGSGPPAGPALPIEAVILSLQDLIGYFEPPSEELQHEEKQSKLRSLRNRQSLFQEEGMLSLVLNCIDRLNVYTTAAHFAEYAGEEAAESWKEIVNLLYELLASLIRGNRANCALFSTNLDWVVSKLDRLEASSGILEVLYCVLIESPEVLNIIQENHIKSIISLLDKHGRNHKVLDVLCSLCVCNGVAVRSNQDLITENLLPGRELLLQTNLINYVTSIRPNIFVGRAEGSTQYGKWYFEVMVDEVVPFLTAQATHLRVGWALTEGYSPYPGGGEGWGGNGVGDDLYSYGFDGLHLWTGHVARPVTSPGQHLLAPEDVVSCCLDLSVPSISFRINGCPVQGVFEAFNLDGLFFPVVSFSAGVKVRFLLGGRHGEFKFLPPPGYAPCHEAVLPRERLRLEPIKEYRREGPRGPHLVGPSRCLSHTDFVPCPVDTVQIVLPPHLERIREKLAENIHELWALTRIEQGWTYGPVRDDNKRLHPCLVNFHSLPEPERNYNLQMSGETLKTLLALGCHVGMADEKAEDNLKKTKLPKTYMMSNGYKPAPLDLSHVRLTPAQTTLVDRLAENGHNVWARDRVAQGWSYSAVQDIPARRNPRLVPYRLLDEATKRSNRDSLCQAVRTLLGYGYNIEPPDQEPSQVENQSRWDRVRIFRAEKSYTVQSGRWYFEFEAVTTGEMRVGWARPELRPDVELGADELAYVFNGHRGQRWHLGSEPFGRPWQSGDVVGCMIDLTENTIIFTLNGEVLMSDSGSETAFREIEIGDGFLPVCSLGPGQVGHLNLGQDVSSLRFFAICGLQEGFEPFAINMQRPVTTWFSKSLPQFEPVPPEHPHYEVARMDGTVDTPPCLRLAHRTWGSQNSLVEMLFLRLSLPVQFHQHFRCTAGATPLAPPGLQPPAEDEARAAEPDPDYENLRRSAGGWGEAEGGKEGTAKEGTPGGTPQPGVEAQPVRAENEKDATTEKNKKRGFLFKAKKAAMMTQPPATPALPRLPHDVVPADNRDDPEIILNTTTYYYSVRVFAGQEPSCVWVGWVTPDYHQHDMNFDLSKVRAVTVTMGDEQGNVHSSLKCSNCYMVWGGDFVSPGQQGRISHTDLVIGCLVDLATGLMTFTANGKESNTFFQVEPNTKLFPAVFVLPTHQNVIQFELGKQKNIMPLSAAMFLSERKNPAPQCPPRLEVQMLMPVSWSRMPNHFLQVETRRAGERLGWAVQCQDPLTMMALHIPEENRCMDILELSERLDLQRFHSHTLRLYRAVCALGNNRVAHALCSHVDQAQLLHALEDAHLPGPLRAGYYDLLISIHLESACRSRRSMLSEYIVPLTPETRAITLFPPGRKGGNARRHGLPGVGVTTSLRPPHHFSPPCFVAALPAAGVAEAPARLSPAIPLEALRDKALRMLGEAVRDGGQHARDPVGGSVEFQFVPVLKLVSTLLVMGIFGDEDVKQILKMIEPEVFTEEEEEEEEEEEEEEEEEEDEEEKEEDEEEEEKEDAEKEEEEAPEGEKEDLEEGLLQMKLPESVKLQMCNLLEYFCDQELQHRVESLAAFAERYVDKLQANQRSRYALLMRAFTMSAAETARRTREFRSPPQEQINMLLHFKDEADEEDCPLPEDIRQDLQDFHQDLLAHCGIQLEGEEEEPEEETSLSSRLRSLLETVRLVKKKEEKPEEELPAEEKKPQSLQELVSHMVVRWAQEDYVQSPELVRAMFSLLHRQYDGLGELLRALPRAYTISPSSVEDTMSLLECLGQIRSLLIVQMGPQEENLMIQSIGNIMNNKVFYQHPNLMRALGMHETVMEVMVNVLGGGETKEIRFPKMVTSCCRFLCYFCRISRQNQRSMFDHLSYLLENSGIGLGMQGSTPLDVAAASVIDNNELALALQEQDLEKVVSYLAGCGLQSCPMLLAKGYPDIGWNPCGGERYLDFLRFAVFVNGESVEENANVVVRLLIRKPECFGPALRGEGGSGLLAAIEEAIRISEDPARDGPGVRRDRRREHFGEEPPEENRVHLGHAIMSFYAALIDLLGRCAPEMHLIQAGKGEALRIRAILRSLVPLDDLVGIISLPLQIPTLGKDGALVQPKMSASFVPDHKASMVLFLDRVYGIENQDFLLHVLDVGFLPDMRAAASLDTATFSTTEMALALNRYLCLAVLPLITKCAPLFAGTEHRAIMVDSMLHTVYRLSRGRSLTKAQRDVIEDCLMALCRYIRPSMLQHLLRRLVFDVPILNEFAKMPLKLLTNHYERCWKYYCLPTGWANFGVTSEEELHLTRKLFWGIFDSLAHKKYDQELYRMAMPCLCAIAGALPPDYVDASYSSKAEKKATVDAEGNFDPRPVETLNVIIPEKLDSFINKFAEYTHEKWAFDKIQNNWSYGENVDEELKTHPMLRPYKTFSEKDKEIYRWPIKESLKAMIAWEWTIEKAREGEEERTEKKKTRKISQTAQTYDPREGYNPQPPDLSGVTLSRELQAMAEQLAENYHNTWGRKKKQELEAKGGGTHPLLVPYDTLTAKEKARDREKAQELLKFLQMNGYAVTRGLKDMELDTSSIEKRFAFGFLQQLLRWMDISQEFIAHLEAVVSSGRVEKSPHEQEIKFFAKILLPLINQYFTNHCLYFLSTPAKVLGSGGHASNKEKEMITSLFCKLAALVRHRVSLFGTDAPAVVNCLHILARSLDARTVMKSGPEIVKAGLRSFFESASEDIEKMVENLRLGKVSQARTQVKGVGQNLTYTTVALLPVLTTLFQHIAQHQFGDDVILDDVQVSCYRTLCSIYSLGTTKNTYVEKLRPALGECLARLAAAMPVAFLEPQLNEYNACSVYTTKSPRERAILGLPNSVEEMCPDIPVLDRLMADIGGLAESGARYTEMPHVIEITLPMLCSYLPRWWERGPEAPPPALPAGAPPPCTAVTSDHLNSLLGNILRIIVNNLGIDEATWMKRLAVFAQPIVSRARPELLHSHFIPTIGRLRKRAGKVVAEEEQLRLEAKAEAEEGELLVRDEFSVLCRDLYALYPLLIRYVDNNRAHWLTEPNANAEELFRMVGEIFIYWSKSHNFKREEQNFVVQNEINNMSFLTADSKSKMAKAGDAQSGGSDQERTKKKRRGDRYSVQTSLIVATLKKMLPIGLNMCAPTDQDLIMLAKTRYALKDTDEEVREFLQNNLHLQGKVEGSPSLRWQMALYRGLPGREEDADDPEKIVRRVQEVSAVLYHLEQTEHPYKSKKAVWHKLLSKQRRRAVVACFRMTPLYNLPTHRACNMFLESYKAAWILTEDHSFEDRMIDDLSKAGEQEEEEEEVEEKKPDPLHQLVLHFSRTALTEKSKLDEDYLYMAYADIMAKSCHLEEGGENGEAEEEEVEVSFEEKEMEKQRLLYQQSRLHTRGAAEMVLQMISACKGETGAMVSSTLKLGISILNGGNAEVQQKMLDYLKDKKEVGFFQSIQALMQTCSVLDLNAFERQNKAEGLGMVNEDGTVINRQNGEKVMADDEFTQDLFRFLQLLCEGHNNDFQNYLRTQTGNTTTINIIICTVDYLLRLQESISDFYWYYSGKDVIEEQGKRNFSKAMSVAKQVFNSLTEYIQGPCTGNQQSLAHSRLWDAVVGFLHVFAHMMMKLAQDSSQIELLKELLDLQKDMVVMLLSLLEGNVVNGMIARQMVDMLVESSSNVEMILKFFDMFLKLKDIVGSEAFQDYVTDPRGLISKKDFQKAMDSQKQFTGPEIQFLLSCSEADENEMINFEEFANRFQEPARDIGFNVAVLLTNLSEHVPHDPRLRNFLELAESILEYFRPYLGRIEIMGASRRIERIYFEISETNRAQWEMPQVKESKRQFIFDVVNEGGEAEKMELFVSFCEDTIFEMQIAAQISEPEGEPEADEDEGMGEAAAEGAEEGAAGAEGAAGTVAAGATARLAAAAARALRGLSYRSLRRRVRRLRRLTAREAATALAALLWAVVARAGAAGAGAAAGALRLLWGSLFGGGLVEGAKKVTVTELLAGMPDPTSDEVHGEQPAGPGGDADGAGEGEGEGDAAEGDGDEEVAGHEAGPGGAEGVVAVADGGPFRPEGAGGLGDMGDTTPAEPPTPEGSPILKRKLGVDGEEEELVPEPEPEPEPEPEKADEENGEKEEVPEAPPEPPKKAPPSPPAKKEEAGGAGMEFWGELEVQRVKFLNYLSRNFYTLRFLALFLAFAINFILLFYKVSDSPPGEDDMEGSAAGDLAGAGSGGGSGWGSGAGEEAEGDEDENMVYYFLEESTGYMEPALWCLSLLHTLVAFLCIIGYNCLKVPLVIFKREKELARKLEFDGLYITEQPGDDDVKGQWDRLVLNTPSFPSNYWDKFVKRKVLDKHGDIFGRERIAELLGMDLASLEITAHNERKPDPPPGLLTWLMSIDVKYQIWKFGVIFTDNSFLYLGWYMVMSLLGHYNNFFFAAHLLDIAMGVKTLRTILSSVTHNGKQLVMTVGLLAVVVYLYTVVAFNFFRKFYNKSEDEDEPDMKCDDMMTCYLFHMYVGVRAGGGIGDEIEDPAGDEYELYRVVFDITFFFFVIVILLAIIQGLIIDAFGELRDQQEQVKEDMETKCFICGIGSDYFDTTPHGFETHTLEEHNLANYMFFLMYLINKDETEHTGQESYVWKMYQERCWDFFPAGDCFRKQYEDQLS

B1: RyR-specific nanobody Nb9657 (VHH)
VHH: QVQLQESGGGLMQAGGSLRLSCTASGSIFSINSMGWYRQAPGKQRELVATITSGNSINYADSVKGRFTISRDNAKNTVYLQMNSLKPEDTAVYYCNADRVPNGYNPWGTPNDEYDYWGQGTQVTVSS
binding result: binds
